Columns and labels:
[1] = target: T1, SLBP (histone stem-loop binding protein) (UniProt Q14493 1-270); test: RIP pull-down with recombinant SLBP; with T-1* trigger; EMSA: 1x NT2 buffer, 1 mM DTT, RNaseOUT, 50 uL, room temperature 1 h, 1.25 ug SLBP (~37 pmol), native 8% PAGE in 1x TB; RIP: RNAs in 10 mM Tris/100 mM NaCl; pH; details: label: none, trans three-way junction, bait:trigger 1:1, not a blunt duplex
[2] = target: T1, SLBP (histone stem-loop binding protein); test: EMSA; without trigger; EMSA: 1x NT2 buffer, 1 mM DTT, RNaseOUT, 50 uL, room temperature 1 h, 1.25 ug SLBP (~37 pmol), native 8% PAGE in 1x TB; RIP: RNAs in 10 mM Tris/100 mM NaCl; pH; details: protein: recombinant; label: none; alternative fold without HSL
[3] = target: T1, SLBP (histone stem-loop binding protein); test: EMSA; with T-1 trigger; EMSA: 1x NT2 buffer, 1 mM DTT, RNaseOUT, 50 uL, room temperature 1 h, 1.25 ug SLBP (~37 pmol), native 8% PAGE in 1x TB; RIP: RNAs in 10 mM Tris/100 mM NaCl; pH; details: protein: recombinant; label: none; trans three-way junction, bait:trigger 1:1, not a blunt duplex

B1: B-1a + T-1* (trans-3WJ) (mixed)
RNA 1: GGGCAAACACCAUUGUCAAAAGGCUCUUUUCAGAGCCACACUCCA
RNA 2: UGGAGUGUGACAAUGGUGUUUG
modifications: 2'-OMe on trigger (strand 2)
binding result [1]: binds

B2: B-1b (structured_RNA)
RNA: GGGAAGAGAGCCCAAACACCAUUGUCAAAAGGCUCUUUUCAGAGCUACACUCCAGAGCU
modifications: none
binding result [2]: no binding

B3: B-1b + T-1 (trans-3WJ) (structured_RNA)
RNA 1: GGGAAGAGAGCCCAAACACCAUUGUCAAAAGGCUCUUUUCAGAGCUACACUCCAGAGCU
RNA 2: UGGAGUGUGACAAUGGUGUUUG
modifications: none
binding result [3]: binds

Source: PMC5368982, “Engineering Structurally Interacting RNA (sxRNA)”
